# Measured values as given in US12698507B2, “Methods and compositions for conferring and/or enhancing herbicide tolerance using protoporphyrinogen IX oxidase of various cyanobacteria or variant thereof” (FarmHannong Co., Ltd., priority 2019, dated 2026).
# Substitutions are numbered along the chain they refer to. Names and notes keep the numbering of the source.
# B1: CyPPO19 L327T + I408W + F360V: variant of CyPPO19 PPO protein (SEQ ID NO: 1) (protein)
# chain: MSEVDVAIVGGGLSGLSLAWRLQQSAPQYSVVLLEASDRLGGNITTQTAEGFVWELGPNSFAPTPALLQLIAEVGLQSELIRGDRHLPRYIYWRGQLYPLQPTRPLALATSNLLSPWGKVRAALGALGFVPPYLGSGDESVNSFFRRHLGQEVAERLVAPFVSGVYAGDPQQLSAAAAFRRIAQLEKLGGGLIAGALHLRRQQAPKPKPPTSVQMRPGELGSFKEGLAALPRAIAQQLKAPIHLQTPVQEITPDPKGGYLLRSGEQTWRARSVVLATPAYQTAELVAPFQPAIARVLATIPYPTVACVVLAYPAGLGRSVRPGFGVTIPRSQGIRTLGTIWSSCLFPQRTPAGWQVFTSVIGGATDPDLASLSEEAIVQQVQQDLNRLLDLPAAKARLLGMKVWRRAWPQYMVGYPEQWQQVTHALSQTPGLFLCSNYAEGVALGDRVEHGNRTAAAVAAYLSGGQP
# modifications: Synthetic_PPO of Thermosynechococcus elongatus PKUAC-SCTE542 (comprising GenBank No. CP032152.1)
# B2: CyPPO19 R89A + V165C + A167C + F360I: variant of CyPPO19 PPO protein (SEQ ID NO: 1) (protein)
# chain: B1 chain with R89A, V165C, A167C, T327L, V360I, W408I
# modifications: Synthetic_PPO of Thermosynechococcus elongatus PKUAC-SCTE542 (comprising GenBank No. CP032152.1)
# B3: CyPPO19 R89A + V165C + L327T + F360V: variant of CyPPO19 PPO protein (SEQ ID NO: 1) (protein)
# chain: B1 chain with R89A, V165C, W408I
# modifications: Synthetic_PPO of Thermosynechococcus elongatus PKUAC-SCTE542 (comprising GenBank No. CP032152.1)
# B4: CyPPO19 R89A + V165S + V305M + F360M: variant of CyPPO19 PPO protein (SEQ ID NO: 1) (protein)
# chain: B1 chain with R89A, V165S, V305M, T327L, V360M, W408I
# modifications: Synthetic_PPO of Thermosynechococcus elongatus PKUAC-SCTE542 (comprising GenBank No. CP032152.1)
# B5: CyPPO19 V165C + F360L: variant of CyPPO19 PPO protein (SEQ ID NO: 1) (protein)
# chain: B1 chain with V165C, T327L, V360L, W408I
# modifications: Synthetic_PPO of Thermosynechococcus elongatus PKUAC-SCTE542 (comprising GenBank No. CP032152.1)
# B6: CyPPO19 R89A + V165S + I408R + F360L: variant of CyPPO19 PPO protein (SEQ ID NO: 1) (protein)
# chain: B1 chain with R89A, V165S, T327L, V360L, W408R
# modifications: Synthetic_PPO of Thermosynechococcus elongatus PKUAC-SCTE542 (comprising GenBank No. CP032152.1)
# Test system: PPO-deficient BT3 E. coli (ΔPPO)
# Experiment: PPO-inhibiting herbicide tolerance test of PPO variants in E. coli (growth on herbicide-containing LB agar)
# Format: cell-based
# Conditions: CyPPO19 variants in BT3 (ΔPPO) E. coli; LB agar with 0 to 2,000 μM herbicide, 37° C., dark, 16-20 hours
# Summary of the method: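 Transformants were grown to OD600 0.5–1, adjusted to OD600=0.5 and spotted as 10-fold dilutions on LB agar with ampicillin (100 μg/mL) and 0 to 2,000 μM herbicide. Plates were kept at 37° C in the dark for 16-20 hours; growth was scored relative to wild type, one '+' per 10-fold resistance.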
Molecule,"tolerance level relative to wild type, Carfentrazone","tolerance level relative to wild type, Flumioxazin","tolerance level relative to wild type, Fomesafen","tolerance level relative to wild type, Oxyfluorfen","tolerance level relative to wild type, Saflufenacil","tolerance level relative to wild type, Sulfentrazone","tolerance level relative to wild type, Tiafenacil"
B1,++ (‘+’ per each 10-fold resistance),+++++ (until ‘+++++’ as maximal resistance),+++++ (until ‘+++++’ as maximal resistance),+++++ (until ‘+++++’ as maximal resistance),+++++ (until ‘+++++’ as maximal resistance),++++ (‘+’ per each 10-fold resistance),+++++ (until ‘+++++’ as maximal resistance)
B2,+ (‘+’ per each 10-fold resistance),+++ (‘+’ per each 10-fold resistance),++ (‘+’ per each 10-fold resistance),+ (‘+’ per each 10-fold resistance),+++ (‘+’ per each 10-fold resistance),++ (‘+’ per each 10-fold resistance),+++ (‘+’ per each 10-fold resistance)
B3,+ (‘+’ per each 10-fold resistance),++++ (‘+’ per each 10-fold resistance),+ (‘+’ per each 10-fold resistance),+ (‘+’ per each 10-fold resistance),+++ (‘+’ per each 10-fold resistance),++ (‘+’ per each 10-fold resistance),+++ (‘+’ per each 10-fold resistance)
B4,+ (‘+’ per each 10-fold resistance),+++++ (until ‘+++++’ as maximal resistance),+++ (‘+’ per each 10-fold resistance),++ (‘+’ per each 10-fold resistance),+++++ (until ‘+++++’ as maximal resistance),+++ (‘+’ per each 10-fold resistance),+++++ (until ‘+++++’ as maximal resistance)
B5,+ (‘+’ per each 10-fold resistance),++++ (‘+’ per each 10-fold resistance),+++ (‘+’ per each 10-fold resistance),++ (‘+’ per each 10-fold resistance),++++ (‘+’ per each 10-fold resistance),++++ (‘+’ per each 10-fold resistance),++++ (‘+’ per each 10-fold resistance)
B6,+ (‘+’ per each 10-fold resistance),++++ (‘+’ per each 10-fold resistance),++ (‘+’ per each 10-fold resistance),++ (‘+’ per each 10-fold resistance),++++ (‘+’ per each 10-fold resistance),+++ (‘+’ per each 10-fold resistance),++++ (‘+’ per each 10-fold resistance)
